Experimental data: patent US20060257406A1 (published 2006)

How the values were obtained:
human TNFα [1] = target: T1, human TNFα (human, UniProt P01375 77-233); experiment: TNF receptor assay (ELISA): inhibition of TNF binding to plate-bound TNF receptor 1-Fc
T1 construct: also called TAR1; TNF alpha

human TNFα [2] = target: T1, human TNFα; experiment: as above; remark: listed apart in the source
human TNFα [3] = target: T1, human TNFα; experiment: as above; remark: listed apart in the source
human TNFα [4] = target: T1, human TNFα; experiment: cell-based or functional assay
mouse serum albumin [5] = target: T2, mouse serum albumin (mouse, UniProt P07724 25-608); experiment: inhibition biacore: dAb premixed with MSA, binding to MSA-coated CM5 chip, Klotz plot (estimated Kd)
T2 construct: biotinylated MSA (about 2 biotins per molecule) in the capture ELISA; also called MSA
Protocol: The purified dabs were then analysed by inhibition biacore to determine Kd. […] Once the required concentrations of dAb had been determined, MSA antigen at a range of concentrations around the expected Kd was premixed with the dAb and incubated overnight. Binding to the MSA coated biacore chip of dAb in each of the premixes was then measured at a high flow-rate of 30 μl/minute.

mouse serum albumin [6] = target: T2, mouse serum albumin; experiment: capture ELISA: dAb on protein L, biotinylated MSA, streptavidin-HRP
Protocol: (§1) Two rounds of selection were performed on serum albumin using each of the libraries separately. For each selection, antigen was coated on immunotube (nunc) in 4 ml of PBS at a concentration of 100 μg/ml. In the first round of selection, each of the three libraries was panned separately against HSA (Sigma) and MSA (Sigma). In the second round of selection, phage from each of the six first round selections was panned against (i) the same antigen again (eg 1st round MSA, 2nd round MSA) and (ii) against the reciprocal antigen (eg 1st round MSA, 2nd round HSA) resulting in a total of twelve 2nd round selections. In each case, after the second round of selection 48 clones were tested for binding to HSA and MSA. Soluble dAb fragments were produced as described for scFv fragments by Harrison et al, Methods Enzymol. 1996; 267:83-109 and standard ELISA protocol was followed (Hoogenboom et al. (1991) Nucleic Acids Res., 19: 4133) except that 2% tween PBS was used as a blocking buffer and bound dabs were detected with either protein LHRP (Sigma) (for the Vκs) and protein A—HRP (Amersham Pharmacia Biotech) (for the VHs).
Next, the serum albumin binding dAbs were tested for their ability to capture biotinylated antigen from solution. ELISA protocol (as above) was followed except that ELISA plate was coated with 1 μg/ml protein L (for the Vκ clones) and 1 μg/ml protein A (for the VH clones). Soluble dAb was captured from solution as in the protocol and detection was with biotinylated MSA or HSA and streptavidin HRP. The biotinylated MSA and HSA had been prepared according to the manufacturer's instructions, with the aim of achieving an average of 2 biotins per serum albumin molecule. […] Next, the dAbs were tested for their ability to bind MSA coated on a CM5 biacore chip.

human serum albumin = target: T3, human serum albumin (human, UniProt P02768 25-609); experiment: capture ELISA: dAb on protein L, biotinylated HSA, streptavidin-HRP
T3 construct: also called HSA
Protocol: as §1
Next, the serum albumin binding dAbs were tested for their ability to capture biotinylated antigen from solution. ELISA protocol (as above) was followed except that ELISA plate was coated with 1 μg/ml protein L (for the Vκ clones) and 1 μg/ml protein A (for the VH clones). […]

hen egg lysozyme [7] = target: T4, hen egg lysozyme (hen, UniProt P00698 19-147); experiment: ELISA on coated hen egg lysozyme, detection with 9e10 and anti mouse IgG-HRP
T4 construct: also called HEL; HL

hen egg lysozyme [8] = target: T4, hen egg lysozyme; experiment: selection from a dAb library
human TNFα [9] = target: T1, human TNFα; experiment: not stated; printed in the column 'Equilibrium dissocation constant (Kd = Koff/Kon)' of the data summary
human TNFα [10] = target: T1, human TNFα; experiment: cell-based or functional assay; remark: listed apart in the source
human TNFα [11] = target: T1, human TNFα; experiment: ELISA on 1 ug/ml TNF, 200 nM IgG, anti-Fc-HRP
Protocol: A 96 well plate was coated with 100 ul of INF and TNFRI at 1 ug/ml concentration in PBS overnight at 4 C. 50 ul (200 nM) of IgG was then added to the wells and bound IgG was detected via anti-Fc-HRP.

human TNFα [12] = target: T1, human TNFα; experiment: TNF receptor assay (ELISA), fermenter material purified by cation exchange FPLC
human TNFα [13] = target: T1, human TNFα; experiment: TNF receptor assay (ELISA): inhibition of TNF binding to plate-bound TNF receptor 1-Fc; remark: listed apart in the source

T2 sequence (P07724 25-608 limits assumed): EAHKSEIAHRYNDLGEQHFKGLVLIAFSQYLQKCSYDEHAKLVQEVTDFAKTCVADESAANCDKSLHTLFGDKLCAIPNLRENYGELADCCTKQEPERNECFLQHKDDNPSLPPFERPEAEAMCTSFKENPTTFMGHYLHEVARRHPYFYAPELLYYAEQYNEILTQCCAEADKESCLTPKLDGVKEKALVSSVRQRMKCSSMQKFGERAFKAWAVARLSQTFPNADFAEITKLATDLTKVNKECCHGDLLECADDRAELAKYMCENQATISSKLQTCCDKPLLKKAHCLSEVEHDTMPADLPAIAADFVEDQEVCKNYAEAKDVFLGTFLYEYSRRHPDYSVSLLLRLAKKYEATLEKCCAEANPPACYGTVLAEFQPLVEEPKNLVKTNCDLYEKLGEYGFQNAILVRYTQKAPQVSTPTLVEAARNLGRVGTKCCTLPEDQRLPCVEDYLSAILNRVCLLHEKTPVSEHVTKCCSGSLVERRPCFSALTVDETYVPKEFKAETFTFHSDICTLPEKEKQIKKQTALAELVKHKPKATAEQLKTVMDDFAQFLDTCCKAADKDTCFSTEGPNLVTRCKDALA
T4 sequence (P00698 19-147): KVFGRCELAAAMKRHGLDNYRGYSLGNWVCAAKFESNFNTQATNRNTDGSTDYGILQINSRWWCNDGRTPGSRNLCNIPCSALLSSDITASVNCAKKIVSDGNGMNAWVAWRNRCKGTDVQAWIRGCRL
T1 sequence (P01375 77-233 limits assumed): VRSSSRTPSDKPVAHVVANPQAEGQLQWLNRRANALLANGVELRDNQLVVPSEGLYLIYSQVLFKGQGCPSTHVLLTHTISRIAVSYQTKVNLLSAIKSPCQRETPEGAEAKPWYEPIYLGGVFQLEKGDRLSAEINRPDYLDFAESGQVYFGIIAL

B1: TAR1-5-19CYS dimer (other)
chain: DIQMTQSPSSLSASVGDRVTITCRASQSIDSYLHWYQQKPGKAPKLLIYSASELQSGVPSRFSGSGSGTDFTLTISSLQPEDFATYYCQQVVWRPFTFGQGTKVEIKRC
modifications: disulphide between the C-terminal Cys of the two chains
notes: separated from monomer by cation exchange; also called the dimer
IC50 (human TNFα [1]): 0.0003 to 0.0008 µM

B2: trimeric TAR1-5-19CYS (other)
chain: DIQMTQSPSSLSASVGDRVTITCRASQSIDSYLHWYQQKPGKAPKLLIYSASELQSGVPSRFSGSGSGTDFTLTISSLQPEDFATYYCQQVVWRPFTFGQGTKVEIKRC
modifications: C-terminal Cys coupled to TMEA (Tris[2-maleimidoethyl]amine)
notes: also called the trimer; TAR1-5-19 homotrimer
IC50 (human TNFα [2]): 0.0003 µM

B3: TAR1-5-19 3U homodimer (other)
chain: DIQMTQSPSSLSASVGDRVTITCRASQSIDSYLHWYQQKPGKAPKLLIYSASELQSGVPSRFSGSGSGTDFTLTISSLQPEDFATYYCQQVVWRPFTFGQGTKVEIKRGGGGSGGGGSGGGGSDIQMTQSPSSLSASVGDRVTITCRASQSIDSYLHWYQQKPGKAPKLLIYSASELQSGVPSRFSGSGSGTDFTLTISSLQPEDFATYYCQQVVWRPFTFGQGTKVEIKR
notes: also called TAR1-5-19 homodimer with (Gly4Ser)3 linker
IC50 (human TNFα [3]): ~0.02 µM | CA (cell assay) ND50 (human TNFα [4]): ~30 nM

B4: MSA16 (other)
VL: DIQMTQSPSSLSASVGDRVTITCRASQSIIKHLKWYQQKPGKAPKLLIYGASRLQSGVPSRFSGSGSGTDFTLTISSLQPEDFATYYCQQGARWPQTFGQGTKVEIK
notes: also called 21; dAb MSA16
Kd (mouse serum albumin [5]): 0.2 µM

B5: MSA26 (other)
VL: DIQMTQSPSSLSASVGDRVTITCRASQSIYYHLKWYQQKPGKAPKLLIYKASTLQSGVPSRFSGSGSGTDFTLTISSLQPEDFATYYCQQVRKVPRTFGQGTKVEIK
notes: also called 25; dAb MSA26
Kd (mouse serum albumin [5]): 0.07 µM

B6: anti-serum albumin Vκ dAb clones 30, 35 (other)
VL: DIQMTQSPSSLSASVGDRVTITCRASQSIRRYLKWYQQKPGKAPKLLIYQASVLQSGVPSRFSGSGSGTDFTLTISSLQPEDFATYYCQQGLYPPITFGQGTKVEIK
binding result (mouse serum albumin [6]): binds

B7: anti-serum albumin Vκ dAb clones 2, 4, 7, 41 (other)
VL: DIQMTQSPSSLSASVGDRVTITCRASQSISSYLNWYQQKPGKAPKLLIYRASPLQSGVPSRFSGSGSGTDFTLTISSLQPEDFATYYCQQTYSVPPTFGQGTKVEIK
binding result (mouse serum albumin [6]): binds | binding result (human serum albumin): binds

B8: anti-serum albumin Vκ dAb clones 46, 47, 52, 56 (other)
VL: DIQMTQSPSSLSASVGDRVTITCRASQSIFKSLKWYQQKPGKAPKLLIYNASYLQSGVPSRFSGSGSGTDFTLTISSLQPEDFATYYCQQVVYWPVTFGQGTKVEIK
notes: same printed CDRs as clone 55
binding result (mouse serum albumin [6]): binds

B9: anti-serum albumin Vκ dAb clones 38, 54 (other)
VL: DIQMTQSPSSLSASVGDRVTITCRASQSISSYLNWYQQKPGKAPKLLIYRASPLQSGVPSRFSGSGSGTDFTLTISSLQPEDFATYYCQQTYRIPPTFGQGTKVEIK
binding result (mouse serum albumin [6]): binds | binding result (human serum albumin): binds

B10: TAR1-5-19 5U homodimer (other)
chain: DIQMTQSPSSLSASVGDRVTITCRASQSIDSYLHWYQQKPGKAPKLLIYSASELQSGVPSRFSGSGSGTDFTLTISSLQPEDFATYYCQQVVWRPFTFGQGTKVEIKRGGGGSGGGGSGGGGSGGGGSGGGGSDIQMTQSPSSLSASVGDRVTITCRASQSIDSYLHWYQQKPGKAPKLLIYSASELQSGVPSRFSGSGSGTDFTLTISSLQPEDFATYYCQQVVWRPFTFGQGTKVEIKR
notes: also called TAR1-5-19 homodimer with (Gly4Ser)5 linker
IC50 (human TNFα [3]): ~0.002 µM | CA (cell assay) ND50 (human TNFα [4]): ~3 nM

B11: VH CH/VH Cκ dual specific Fab like fragment (HEL4 CH, TAR2-5 Cκ) (Fab, V domains shown, not shown: a dimerising Fc or GST; small tags and cut ends)
V domain 1: EVQLLESGGGLVQPGGSLRLSCAASGFRISDEDMGWVRQAPGKGLEWVSSIYGPSGSTYYADSVKGRFTISRDNSKNTLYLQMNSLRAEDTAVYYCASALEPLSEPLGFWGQGTLVTVSS
V domain 2: EVQLLESGGGLVQPGGSLRLSCAASGFTFDLYNMFWVRQAPGKGLEWVSFISQTGRLTWYADSVKGRFTISRDNSKNTLYLQMNSLRAEDTAVYYCAKTLEDFDYWGQGTLVTVSS
ELISA signal (hen egg lysozyme [7]): 0.154

B12: HEL4 (other)
VH: EVQLLESGGGLVQPGGSLRLSCAASGFRISDEDMGWVRQAPGKGLEWVSSIYGPSGSTYYADSVKGRFTISRDNSKNTLYLQMNSLRAEDTAVYYCASALEPLSEPLGFWGQGTLVTVSS
notes: also called VH dAb HEL4; anti-hen egg white lysozyme dAb
binding result (hen egg lysozyme [8]): binds

B13: VH Cκ chain expressed alone (protein, not shown: a dimerising Fc or GST; small tags and cut ends)
VH: EVQLLESGGGLVQPGGSLRLSCAASGFTFDLYNMFWVRQAPGKGLEWVSFISQTGRLTWYADSVKGRFTISRDNSKNTLYLQMNSLRAEDTAVYYCAKTLEDFDYWGQGTLVTVSS
ELISA signal (hen egg lysozyme [7]): 0.069

B14: TAR1-5-19 dAb monomer (other)
VL: DIQMTQSPSSLSASVGDRVTITCRASQSIDSYLHWYQQKPGKAPKLLIYSASELQSGVPSRFSGSGSGTDFTLTISSLQPEDFATYYCQQVVWRPFTFGQGTKVEIKR
notes: also called TAR1-5-19 monomer; TAR1-5-19 Vκ dAb
IC50 (human TNFα [1]): 0.03 µM | Kd (human TNFα [9]): 0.03 µM | ND50 in the cell assay (human TNFα [10]): ~30 nM

B15: TAR1-5-19, MSA16 cys bonded heterodimer (bispecific antibody, V domains shown)
V domain 1: DIQMTQSPSSLSASVGDRVTITCRASQSIDSYLHWYQQKPGKAPKLLIYSASELQSGVPSRFSGSGSGTDFTLTISSLQPEDFATYYCQQVVWRPFTFGQGTKVEIKR
V domain 2: DIQMTQSPSSLSASVGDRVTITCRASQSIIKHLKWYQQKPGKAPKLLIYGASRLQSGVPSRFSGSGSGTDFTLTISSLQPEDFATYYCQQGARWPQTFGQGTKVEIKR
modifications: C-terminal Cys disulphide bonded to the C-terminal Cys of the MSA16 chain ; chain 1 pos 109 Cys and chain 2 pos 109 Cys are joined by an intermolecular disulphide bond (chemical coupling via dithiodipyridine); no tags
notes: two Vκ dAbs joined by a disulphide bond; separated from monomers by cation exchange; also called disulphide bonded heterodimer of TAR1-5-19 dAb and MSA16 dAb; heterodimeric species
IC50 (human TNFα [1]): ~0.018 µM

B16: TAR1/TAR2 IgG (bispecific antibody, V domains shown)
VH: EVQLLESGGGLVQPGGSLRLSCAASGFTFEWYWMGWVRQAPGKGLEWVSAISGSGGSTYYADSVKGRFTISRDNSKNTLYLQMNSLRAEDAAVYYCAKVKLGGGPNFGYRGQGTLVTVSS
VL: DIQMTQSPSSLSASVGDRVTITCRASQSIDSYLHWYQQKPGKAPKLLIYSASELQSGVPSRFSGSGSGTDFTLTISSLQPEDFATYYCQQVVWRPFTFGQGTKVEIKR
notes: expressed in COS7 cells with CD33 or IgG κ leader, purified on Protein A; also called the IgG; not shown: IgG1 heavy chain constant region (CH1 from the CH vector; hinge, CH2 and CH3 from the pigplus vector); light chain kappa constant region (CK domain from the CK vector)
binding result (human TNFα [11]): binds

B17: TAR1-5-19d4 (other)
chain: DIQMTQSPSSLSASVGDRVTITCRASQSIDSYLHWYQQKPGKAPKLLIYSASELQSGVPSRFSGSGSGTDFTLTISSLQPEDFATYYCQQVVWRPFTFGQGTKVEIKRGGGGSGGGGSGGGGSGGGGSGGGGSDIQMTQSPSSLSASVGDRVTITCRASQSVKEFLWWYQQKPGKAPKLLIYMASNLQSGVPSRFSGSGSGTDFTLTISSLQPEDFATYYCQQKFKLPRTFGQGTKVEIK
IC50 (human TNFα [12]): 0.008 µM | ND50 in the cell assay (human TNFα [10]): ~5 nM | IC50 (human TNFα [13]): 0.002 to 0.005 µM

B18: TAR1-5-19 7U homodimer (other)
chain: DIQMTQSPSSLSASVGDRVTITCRASQSIDSYLHWYQQKPGKAPKLLIYSASELQSGVPSRFSGSGSGTDFTLTISSLQPEDFATYYCQQVVWRPFTFGQGTKVEIKRGGGGSGGGGSGGGGSGGGGSGGGGSGGGGSGGGGSDIQMTQSPSSLSASVGDRVTITCRASQSIDSYLHWYQQKPGKAPKLLIYSASELQSGVPSRFSGSGSGTDFTLTISSLQPEDFATYYCQQVVWRPFTFGQGTKVEIKR
notes: also called TAR1-5-19 homodimer with (Gly4Ser)7 linker
IC50 (human TNFα [3]): ~0.01 µM | CA (cell assay) ND50 (human TNFα [4]): ~15 nM
